Experimental data published in patent publication US20200255503A1 (Regeneron, published 2020).
Changes are numbered by the printed parent chain. In names and notes the source's numbering stands. Blank lines part the entries; values can stand above or below the binder they belong to.

Key:
[1] = molecular target: T1, Fel d1 (B-A)-mmH (cat (Felis domesticus)); assay: SPR, mAb captured, Fel d1 (B-A)-mmH injected, 25 C;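 note: rate constants obtained by fitting sensorgrams to a one-to-one binding model, Kd computed as koff over kon, half-life derived from koff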
T1 construct: Expressed in CHO cells; also called rFel d1.mmH; rFel d1-mmH
T1 sequence (chain, as listed by the source limits assumed): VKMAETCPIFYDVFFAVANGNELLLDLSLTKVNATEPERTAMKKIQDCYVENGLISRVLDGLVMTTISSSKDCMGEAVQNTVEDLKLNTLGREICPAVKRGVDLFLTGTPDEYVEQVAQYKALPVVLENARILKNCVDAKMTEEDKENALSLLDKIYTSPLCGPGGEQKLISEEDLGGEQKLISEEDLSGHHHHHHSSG
Procedure: Antibody-antigen association was monitored for 3 to 5 minutes, and the dissociation of antigen from the captured monoclonal antibody (in running buffer alone at 25° C.) was monitored for 10 or 15 minutes. Kinetic association (kₐ) and dissociation (kₐ) rate constants were determined by processing and fitting the data to a 1:1 binding model using Scrubber 2.0 curve fitting software. Binding dissociation equilibrium constants (KD) and dissociative half-lives (t_{1/2}) were calculated from the kinetic rate constants as: KD=kd/kₐ and t_{1/2}=ln(2)/kₐ.

[2] = molecular target: rFel d1.mFc (dimeric) (cat (Felis domesticus)); assay: SPR Biacore T200, mAb captured by anti-human Fc, antigen injected
Chain of rFel d1.mFc (dimeric) (cat (Felis domesticus)) (chain, as listed by the source limits assumed): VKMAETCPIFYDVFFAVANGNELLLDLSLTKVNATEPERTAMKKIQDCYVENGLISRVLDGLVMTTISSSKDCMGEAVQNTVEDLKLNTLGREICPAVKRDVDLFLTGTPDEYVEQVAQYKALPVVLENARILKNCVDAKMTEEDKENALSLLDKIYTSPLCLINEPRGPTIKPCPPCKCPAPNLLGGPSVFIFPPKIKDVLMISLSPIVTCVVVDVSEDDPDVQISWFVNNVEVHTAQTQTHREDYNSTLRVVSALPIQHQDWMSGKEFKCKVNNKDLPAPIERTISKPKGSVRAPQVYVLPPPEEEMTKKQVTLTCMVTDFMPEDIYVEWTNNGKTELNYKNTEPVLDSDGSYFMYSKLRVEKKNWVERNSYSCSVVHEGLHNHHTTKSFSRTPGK
Source text: (§1) The binding kinetic parameters were obtained by globally fitting the double reference subtracted data to a 1:1 binding model with mass transport limitation using Biacore T200 Evaluation Software, version 1.0.

[3] = molecular target: T1, Fel d1 (B-A)-mmH; assay: as above
Source text: as §1

B2: H2M1236N (antibody, mouse IgG2, V domains shown)
VH: QVQLQESGPGLVKPSETLSLTCTVSGGSISNYYWSWIRQPPGKGLEWIGYIYYSGRTNYNPSLKSRVTISVDTSKNQFSLKLRSVTAADTAVYYCARHRITRTADSFDYWGQGTLVTVSS
VL: DIQMTQSPSSLSASVGDRVTITCQASQDITNYLNWYQQKPGKAPKLLIYDASNLETGVPSRFSGSGSGTDFTFTISSLQPEDVATFYCHQYGDLPYTFGQGTKLEIK
notes: chimeric, human variable domains with mouse IgG2 Fc (prefix H2M)
- Kd [1]: 0.558 nM
- koff [1]: 0.000232 s⁻¹
- kon [1]: 415000 M⁻¹ s⁻¹
- t1/2 [1]: 50 min

B3: H4H2864P (antibody, human IgG4, V domains shown)
VH: EVQLVESGGGLAQPGGSLRLSCAASGFTFNNYAMTWVRQAPGKGLDWVSAISDSGRSTFSADSVKGRFTISRDNSKNTLYLQMDSLRAEDTALYYCAKHRNWNYPVFDYWGQGTLVTVSS
VL: DIQLTQSPSFLSASVGDRVTITCWASQGISSYLAWYQQKPGKAPKLLIYSASTLQSGVPSRFSGSGSGTEFTLTISSLQPEDFATYYCQQLNSYPFTFGPGTKVDIK
notes: human IgG4 Fc (prefix H4H)
- Kd [1]: 0.576 nM
- koff [1]: 0.000309 s⁻¹
- kon [1]: 537000 M⁻¹ s⁻¹
- t1/2 [1]: 37 min

B6: H4H2645P (antibody, human IgG4, V domains shown)
VH: EVQLVESGGGLVQPGGSLRLSCAASGFTFSTYAMHWVRQAPGKGLEWVSSISGRGRNSDHADSVKGRFTISRDNSKNTLYLQMNSLRAEDTAVYYCARTEYFHHWGQGTLVTVSS
VL: DIQMTQSPSSLSASVGDRITITCRASQDINNYLAWFQQKPGKAPKSLIYGASSLQSGVPSKFSGSGSGTDFTLTISSLQPEDFATYYCQQYSSYPFTFGPGTKVDIK
notes: human IgG4 Fc (prefix H4H)
- Kd [1]: 0.368 nM
- koff [1]: 0.000179 s⁻¹
- kon [1]: 487000 M⁻¹ s⁻¹
- t1/2 [1]: 65 min

B7: H4H1232N (antibody, human IgG4, V domains shown)
VH: EVQLVESGGGLVKPGGSLRLSCAASGFTFRNYNINWVRQAPGKGLEWVSLISGSSSYIYYADSVKGRFTVSRDNAKNSLYLQMNSLRAEDTAVYYCARRTLSYYVMDVWGQGTTVTVSS
VL: DIQVTQSPSPLSASVGDRVTITCRASQGISNYLAWYQQKPGRVPQLLIYAASTLQSGVPSRFSGSGSGTDFTLTISSLQPEDVATYYCQKYNSAPYTFGQGTKLEIK
notes: human IgG4 Fc (prefix H4H); also called REGN1908
- Kd [2]: 0.0316 nM
- T1/2 [2]: 159 min
- koff [2]: 7.25e-05 s⁻¹
- kon [2]: 2.3e+06 M⁻¹ s⁻¹
- Kd [3]: 0.187 nM
- T1/2 [3]: 46 min
- koff [3]: 0.000251 s⁻¹
- kon [3]: 1.34e+06 M⁻¹ s⁻¹
- Kd [1]: 0.144 nM
- koff [1]: 0.000258 s⁻¹
- kon [1]: 1.79e+06 M⁻¹ s⁻¹
- t1/2 [1]: 45 min

Further binders by falling Kd [1], results first:

- Kd [1]: 8.21 nM
- koff [1]: 0.00188 s⁻¹
- kon [1]: 229000 M⁻¹ s⁻¹
- t1/2 [1]: 6 min
B1: H4H1616N (antibody, human IgG4, V domains shown)
VH: EVELLESGGGLVQPGGSLRLSCAASGFTFSSYAMSWVRQAPGKGLEWVSSISGRVGSTHFADSVKGRFTFSRDNSKNTLYLQLSSLRAEDTAVYYCARSRGAAYFDYWGQGTLVTVSS
VL: DIQMTQSPSSLSASVGDRVTITCQANQDISNFLNWYQQRPGKAPNLLIYAASNLETGVPSRFSGSGSGTDFTFTISSLQPEDIATYYCQHYDNFPFTFGPGTKVDIK
notes: human IgG4 Fc (prefix H4H)

- Kd [1]: 4.69 nM
- koff [1]: 0.00205 s⁻¹
- kon [1]: 437000 M⁻¹ s⁻¹
- t1/2 [1]: 6 min
B5: H4H2797P (antibody, human IgG4, V domains shown)
VH: QVQLVESGGGVVLPGRSLRLSCAASGFTFSSYLMYWVRQAPGKGLEWVAVIWYDGSNKFYGDSVKGRFTISRDNSKNTLYLQMNSLRAEDTAVYYCARDNGNSGYEDSWNAFDIWGQGTMVTVSS
VL: B6 VL with I19V, N30Y, G50A, S56T, K61Q, S92N, S93N
notes: human IgG4 Fc (prefix H4H)

- Kd [1]: 1.31 nM
- koff [1]: 0.00051 s⁻¹
- kon [1]: 388000 M⁻¹ s⁻¹
- t1/2 [1]: 23 min
B4: H1M1230N (antibody, V domains shown)
VH: EVQLVESGGGLVQPGGSLRLSCTASGFIFSNFWMTWVRQAPGKGLEWVANIKQDGSETYCVDSVKGRFTISRDHAKNSLFLQMNSLRAEDTAVYYCARGAGTIYYYGMDVWGQGTTVIVSS
VL: DIQMTQSPSSVSASVGDRLTITCRASQDISSWLTWYQQKPGKAPNLLIYAASGLQSGVPSRFSGSGSGTDFTLTISNLQPEDFATYYCQQANSFPLTFGQGTRLEIK
notes: chimeric, human variable domains with mouse Fc (prefix H1M)

- Kd [1]: 0.544 nM
- koff [1]: 0.000166 s⁻¹
- kon [1]: 305000 M⁻¹ s⁻¹
- t1/2 [1]: 70 min
B8: H2M1233N (antibody, mouse IgG2, V domains shown)
VH: QVVLVESGGGVVQPGRSLRLSCAASGFTFSSYGMHWVRQAPGKGLEWVAVIWYDGSNKYYVDSVKGRFTISRDNSNNTIYLQMNSLRAEDTAVYYCARSLIPVAGTDPIFGYWGQGTLVTVSS
VL: DIQMTQSPSTLSASVGDRVTITCRASQSVSSWLAWYQQKPGKAPKLLIFKASGLESGVPFRFSGSGSGTEFTLTISSLQPDDFATYYCQQYNTYSPTFGQGTKVEIK
notes: as for B2

- Kd [1]: 0.449 nM
- koff [1]: 0.000122 s⁻¹
- kon [1]: 272000 M⁻¹ s⁻¹
- t1/2 [1]: 94 min
B9: H2M1242N (antibody, mouse IgG2, V domains shown)
VH: EVQLVESGGGLVRPGGSLRLSCAASGFTFTSYAMNWVRQAPGKGLEWVSSISSYSSYIYIADSVKGRFTLSRDNAKNSLYLQMHSLRPEDTAVYFCAREGYSAYSYFDFWGRGTLVTVSS
VL: B8 VL with S30I, F49H, K50R, G53S, F60S, S77G, S95F, I106V
notes: as for B2
